From paper PMC9427005 (Science (New York, N.y.), 2022)

molecular target: SARS-CoV-2 Wuhan-Hu-1 RBD for SPR binding assays (SARS-CoV-2 Wuhan-Hu-1 (NC_045512.2), UniProt P0DTC2); experiment: SPR; conditions: both partners purified

Binder | Kd [nM] | koff [s⁻¹] | kon [M⁻¹ s⁻¹]
S2X35 IgG (antibody, V domains shown) VH: QVQLVQSGAEVKKPGASVKVSCKASGYTFTNYGISWVRQAPGQGLEWMGWISAYKGNTNYAQKLQGRVTMTTDTSTSTAYMELRSLRSDDTAVYYCARPDYQVLGYDFWIGYYGMDVWGQGTTVIVSS VL: QSVLTQPPSVSGAPGQRVTISCTGSSSNIGAGYDVHWYQQLPGTAPKLLIYGNTNRPSGVPDRFSGSKSGTSASLAITGLQAEDEADYYCQSYDSSLSGSEVVFGGGTKLTVL | 0.268 | 0.000153 | 570000
ADI-58125 IgG1 (antibody, V domains shown, IgG1) VH: EVQLVESGGGLVKPGGSLRLSCAASGFTFSSYYMNWVRQAPGKGLEWVSSISEDGYSTYYPDSLKGRFTISRDSAKNSLYLQMNSLRADDTAVYYCARDFSGHTAWAGTGFEYWGQGTLVTVSS VL: QSVLTQPPSVSGAPGQRITISCTGSSSNIGAGYDVHWYQQLPGTAPKLLIYGSSSRNSGVPDRFSGSKSGTSASLAITGLQAEDEADYYCQSYDSSLSVLYTFGTGTKVTVL | < 0.01 | 7.17e-08 | 1.15e+06
CT-P59 IgG1 (antibody, V domains shown, IgG1) VH: QITLKESGPTLVKPTQTLTLTCSFSGFSLSTSGVGVGWIRQPPGKALEWLALIDWDDNKYHTTSLKTRLTISKDTSKNQVVLTMTNMDPVDTATYYCARIPGFLRYRNRYYYYGMDVWGQGTTVTVSS VL: ELVLTQPPSVSAAPGQKVTISCSGSSSNIGNNYVSWYQQLPGTAPKLLIYDNNKRPSGIPDRFSGSKSGTSATLGITGLQTGDEADYYCGTWDSSLSAGVFGGGTELTVL | 0.066 | 0.000365 | 5.54e+06
REGN10987 IgG1 (antibody, V domains shown, IgG1) VH: QVQLVESGGGVVQPGRSLRLSCAASGFTFSNYAMYWVRQAPGKGLEWVAVISYDGSNKYYADSVKGRFTISRDNSKNTLYLQMNSLRTEDTAVYYCASGSDYGDYLLVYWGQGTLVTVSS VL: QSALTQPASVSGSPGQSITISCTGTSSDVGGYNYVSWYQQHPGKAPKLMIYDVSKRPSGVSNRFSGSKSGNTASLTISGLQSEDEADYYCNSLTSISTWVFGGGTKLTVL | 12.4 |  | 
LY-CoV016 IgG1 (antibody, V domains shown, IgG1) VH: EVQLVESGGGLVQPGGSLRLSCAASGFTVSSNYMSWVRQAPGKGLEWVSVIYSGGSTFYADSVKGRFTISRDNSMNTLFLQMNSLRAEDTAVYYCARVLPMYGDYLDYWGQGTLVTVSS VL: not shown | 13.8 |  | 
COV2-2196 IgG1 (antibody, V domains shown, IgG1) VH: QMQLVQSGPEVKKPGTSVKVSCKASGFTFMSSAVQWVRQARGQRLEWIGWIVIGSGNTNYAQKFQERVTITRDMSTSTAYMELSSLRSEDTAVYYCAAPYCSSISCNDGFDIWGQGTMVTVSS VL: not shown | 1.09 | 0.0124 | 1.14e+07
REGN10933 IgG1 (antibody, V domains shown, IgG1) VH: QVQLVESGGGLVKPGGSLRLSCAASGFTFSDYYMSWIRQAPGKGLEWVSYITYSGSTIYYADSVKGRFTISRDNAKSSLYLQMNSLRAEDTAVYYCARDRGTTMVPFDYWGQGTLVTVSS VL: DIQMTQSPSSLSASVGDRVTITCQASQDITNYLNWYQQKPGKAPKLLIYAASNLETGVPSRFSGSGSGTDFTFTISGLQPEDIATYYCQQYDNLPLTFGGGTKVEIK | 0.689 | 0.00364 | 5.29e+06
LY-CoV555 IgG1 (antibody, V domains shown, IgG1) VH: QVQLVQSGAEVKKPGSSVKVSCKASGGTFSNYAISWVRQAPGQGLEWMGRIIPILGIANYAQKFQGRVTITADKSTSTAYMELSSLRSEDTAVYYCARGYYEARHYYYYYAMDVWGQGTAVTVSS VL: not shown | 1.48 | 0.00117 | 792000
